# According to patent publication US20160158332A1 (US Dept. of Health and Human Services, published 2016):
# Ends that are not written are not given here.
# B1: PyRON2L peptide with the two cysteines mutated to alanines (Cys 1856 and 1868 to Ala) (peptide)
# peptide: DITQHATDIGMGPSTSAYTSLLPPPKSIAIQQTVKTVLTNSTLASMK-NH2
# notes: they are the two cysteines of the peptide; also called RON2Lc/a; c/a
# Biological target: T1, recombinant EcPyAMA1 (P. yoelii YM AMA1 residues 59-479 with a C-terminal histidine tag, E. coli, refolded) (Plasmodium yoelii YM)
# T1 construct: not shown: C-terminal histidine tag
# T1 chain: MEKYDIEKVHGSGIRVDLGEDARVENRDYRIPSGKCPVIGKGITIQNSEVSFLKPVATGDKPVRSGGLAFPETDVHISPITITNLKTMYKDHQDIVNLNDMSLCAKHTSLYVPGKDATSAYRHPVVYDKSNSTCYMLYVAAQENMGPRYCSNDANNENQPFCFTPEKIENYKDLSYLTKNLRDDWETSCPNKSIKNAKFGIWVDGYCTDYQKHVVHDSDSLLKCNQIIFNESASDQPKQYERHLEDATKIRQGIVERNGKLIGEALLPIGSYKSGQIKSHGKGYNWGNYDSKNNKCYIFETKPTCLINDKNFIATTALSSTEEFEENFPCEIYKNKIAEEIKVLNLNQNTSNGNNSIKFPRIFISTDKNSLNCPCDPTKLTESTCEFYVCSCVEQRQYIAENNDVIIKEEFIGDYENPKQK
# Test: binding of RON2L peptide to PyAMA1, FIG. 3E
binder,measurement,value
B1,binding result,no binding
